Source: paper PMC9483116, “Deubiquitination of BES1 by UBP12/UBP13 promotes brassinosteroid signaling and plant growth” (Plant Communications, 2022)
One block for each binder: values may come before it.

Tests used:
Assay in all cases: pull-down; in vitro; GST-tagged proteins bound to glutathione resin as bait, MBP-tagged proteins incubated with them; about 2 ug of each protein; immunoblot with anti-myc or anti-MBP
Settings in all cases: both partners purified
[1] = target: T1, GST-UBP12 (full-length) (Arabidopsis thaliana, UniProt Q9FPT1 1-1116)
T1 construct: UBP12 (ubiquitin-specific protease 12), Arabidopsis thaliana, At5g06600; full length (1-1116 by the limits printed for its N and C derivatives); not shown: GST, N-terminal, kept
T1 sequence (looked up): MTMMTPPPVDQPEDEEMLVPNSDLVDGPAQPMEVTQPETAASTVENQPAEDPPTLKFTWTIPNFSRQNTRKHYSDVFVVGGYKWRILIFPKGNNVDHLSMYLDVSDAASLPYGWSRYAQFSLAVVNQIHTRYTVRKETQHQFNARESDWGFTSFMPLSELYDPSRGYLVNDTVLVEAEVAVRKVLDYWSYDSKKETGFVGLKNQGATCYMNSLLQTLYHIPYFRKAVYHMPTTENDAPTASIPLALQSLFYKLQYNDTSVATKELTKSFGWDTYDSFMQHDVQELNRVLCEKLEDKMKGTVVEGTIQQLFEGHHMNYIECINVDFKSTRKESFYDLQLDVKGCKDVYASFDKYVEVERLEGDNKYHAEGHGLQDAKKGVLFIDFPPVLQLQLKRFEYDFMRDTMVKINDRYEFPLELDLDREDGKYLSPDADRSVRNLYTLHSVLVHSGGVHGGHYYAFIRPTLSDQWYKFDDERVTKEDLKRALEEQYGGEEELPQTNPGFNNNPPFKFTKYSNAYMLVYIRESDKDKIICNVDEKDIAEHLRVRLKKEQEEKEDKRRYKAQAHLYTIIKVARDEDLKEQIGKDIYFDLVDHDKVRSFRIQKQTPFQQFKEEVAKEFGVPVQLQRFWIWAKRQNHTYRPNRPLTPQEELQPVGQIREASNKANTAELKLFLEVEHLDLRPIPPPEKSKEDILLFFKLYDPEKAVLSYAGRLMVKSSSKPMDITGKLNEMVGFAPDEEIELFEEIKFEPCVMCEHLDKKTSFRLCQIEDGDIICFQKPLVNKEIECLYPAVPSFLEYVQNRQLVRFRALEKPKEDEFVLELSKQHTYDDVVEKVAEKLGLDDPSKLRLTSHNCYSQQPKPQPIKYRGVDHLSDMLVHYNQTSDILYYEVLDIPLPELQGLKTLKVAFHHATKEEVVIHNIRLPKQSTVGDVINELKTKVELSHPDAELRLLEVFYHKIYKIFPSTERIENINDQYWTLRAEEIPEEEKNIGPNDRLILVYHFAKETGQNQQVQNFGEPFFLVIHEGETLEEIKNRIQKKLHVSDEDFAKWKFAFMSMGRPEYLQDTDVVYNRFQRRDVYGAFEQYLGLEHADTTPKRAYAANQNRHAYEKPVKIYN

[2] = target: T2, GST-UBP13 (full-length) (Arabidopsis thaliana, UniProt Q84WU2 1-1115)
T2 construct: UBP13 (ubiquitin-specific protease 13), Arabidopsis thaliana, At3g11910; full length
T2 sequence (looked up): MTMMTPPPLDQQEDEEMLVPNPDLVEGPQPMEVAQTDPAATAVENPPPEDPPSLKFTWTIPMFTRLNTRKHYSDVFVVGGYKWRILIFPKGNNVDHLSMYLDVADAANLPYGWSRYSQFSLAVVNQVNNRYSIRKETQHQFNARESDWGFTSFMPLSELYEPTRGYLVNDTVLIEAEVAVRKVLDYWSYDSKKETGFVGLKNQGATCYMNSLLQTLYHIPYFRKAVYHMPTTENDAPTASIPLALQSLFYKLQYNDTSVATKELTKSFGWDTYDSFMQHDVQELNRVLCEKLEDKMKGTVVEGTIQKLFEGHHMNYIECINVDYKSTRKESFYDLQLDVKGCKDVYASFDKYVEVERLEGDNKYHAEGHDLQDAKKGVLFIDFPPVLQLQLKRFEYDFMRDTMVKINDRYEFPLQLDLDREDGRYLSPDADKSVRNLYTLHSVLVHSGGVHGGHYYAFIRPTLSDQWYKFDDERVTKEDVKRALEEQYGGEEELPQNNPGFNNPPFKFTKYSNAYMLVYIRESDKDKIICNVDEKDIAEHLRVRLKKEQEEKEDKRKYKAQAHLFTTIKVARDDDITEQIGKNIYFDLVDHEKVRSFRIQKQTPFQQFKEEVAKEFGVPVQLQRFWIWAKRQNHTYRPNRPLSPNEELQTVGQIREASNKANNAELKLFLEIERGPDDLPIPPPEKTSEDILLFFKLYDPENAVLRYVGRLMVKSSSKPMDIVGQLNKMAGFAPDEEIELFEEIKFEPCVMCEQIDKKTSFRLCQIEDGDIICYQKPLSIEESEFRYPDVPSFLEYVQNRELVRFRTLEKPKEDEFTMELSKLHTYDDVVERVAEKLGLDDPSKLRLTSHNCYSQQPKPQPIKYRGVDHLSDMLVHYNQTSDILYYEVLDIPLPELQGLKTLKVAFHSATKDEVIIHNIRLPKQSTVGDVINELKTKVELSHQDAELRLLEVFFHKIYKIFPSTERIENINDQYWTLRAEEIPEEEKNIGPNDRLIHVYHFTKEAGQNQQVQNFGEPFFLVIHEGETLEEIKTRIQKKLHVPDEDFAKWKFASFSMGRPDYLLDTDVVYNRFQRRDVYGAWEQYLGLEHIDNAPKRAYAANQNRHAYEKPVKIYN

[3] = target: T3, GST-UBP12-N (N-terminal region of UBP12, amino acids 1–541) (Arabidopsis thaliana, UniProt Q9FPT1 1-541)
T3 construct: UBP12, Arabidopsis thaliana, At5g06600; N-terminal region, amino acids 1-541, with the MATH domain and the cysteine/histidine-containing catalytic domain
T3 sequence (looked up): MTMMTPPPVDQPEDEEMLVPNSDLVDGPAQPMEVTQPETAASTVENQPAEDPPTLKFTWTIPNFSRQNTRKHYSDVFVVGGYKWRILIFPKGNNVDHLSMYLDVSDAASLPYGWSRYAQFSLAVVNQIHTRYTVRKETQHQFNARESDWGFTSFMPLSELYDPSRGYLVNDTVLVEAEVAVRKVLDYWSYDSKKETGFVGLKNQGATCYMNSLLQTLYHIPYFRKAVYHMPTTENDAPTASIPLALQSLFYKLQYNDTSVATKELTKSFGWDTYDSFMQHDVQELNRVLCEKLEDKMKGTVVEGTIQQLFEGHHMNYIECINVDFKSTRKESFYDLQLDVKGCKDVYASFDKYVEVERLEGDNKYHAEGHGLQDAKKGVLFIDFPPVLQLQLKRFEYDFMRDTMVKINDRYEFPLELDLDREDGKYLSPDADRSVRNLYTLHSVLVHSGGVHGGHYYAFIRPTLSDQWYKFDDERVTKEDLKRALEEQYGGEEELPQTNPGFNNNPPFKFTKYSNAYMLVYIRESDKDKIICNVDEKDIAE

- binding result [1]: binds
- binding result [2]: binds
- binding result [3]: binds
B1: MBP-BES1-myc (BRI1-EMS-SUPPRESSOR 1) (natural protein, Arabidopsis thaliana, UniProt Q9LN63 1-335, looked up)
chain: MTSDGATSTSAAAAAAAMATRRKPSWRERENNRRRERRRRAVAAKIYTGLRAQGNYNLPKHCDNNEVLKALCSEAGWVVEEDGTTYRKGHKPLPGDMAGSSSRATPYSSHNQSPLSSTFDSPILSYQVSPSSSSFPSPSRVGDPHNISTIFPFLRNGGIPSSLPPLRISNSAPVTPPVSSPTSRNPKPLPTWESFTKQSMSMAAKQSMTSLNYPFYAVSAPASPTHHRQFHAPATIPECDESDSSTVDSGHWISFQKFAQQQPFSASMVPTSPTFNLVKPAPQQLSPNTAAIQEIGQSSEFKFENSQVKPWEGERIHDVAMEDLELTLGNGKAHS
notes: BES1 (BRI1-EMS-SUPPRESSOR 1), Arabidopsis thaliana, At1g19350; source: E. coli BL21 (DE3) pLysS, purified (amylose resin); not shown: MBP, N-terminal, kept; 6x myc, C-terminal, kept

- binding result [1]: binds
- binding result [2]: binds
B2: MBP-BZR1-myc (BRASSINAZOLE RESISTANT1) (natural protein, Arabidopsis thaliana, UniProt Q8S307 1-336, looked up)
chain: MTSDGATSTSAAAAAAAAAAARRKPSWRERENNRRRERRRRAVAAKIYTGLRAQGDYNLPKHCDNNEVLKALCVEAGWVVEEDGTTYRKGCKPLPGEIAGTSSRVTPYSSQNQSPLSSAFQSPIPSYQVSPSSSSFPSPSRGEPNNNMSSTFFPFLRNGGIPSSLPSLRISNSCPVTPPVSSPTSKNPKPLPNWESIAKQSMAIAKQSMASFNYPFYAVSAPASPTHRHQFHTPATIPECDESDSSTVDSGHWISFQKFAQQQPFSASMVPTSPTFNLVKPAPQQMSPNTAAFQEIGQSSEFKFENSQVKPWEGERIHDVGMEDLELTLGNGKARG
notes: BZR1 (BRASSINAZOLE RESISTANT1), Arabidopsis thaliana, At1g75080; source: E. coli BL21 (DE3) pLysS, purified (amylose resin); not shown: MBP, N-terminal, kept; 6x myc, C-terminal, kept
